We go through two molecules from publication PMC13649775 (Nature Communications, 2026).

Where no end group is shown, it is not given here.

The target of the test is T1, LigIV DBD (Met1-Ile240) (UniProt P49917 1-240).
T1 construct: source: E. coli Rosetta2 (DE3), purified (Ni-NTA, TEV, SEC); not shown: His tag, N-terminal, cleaved
T1 sequence (looked up): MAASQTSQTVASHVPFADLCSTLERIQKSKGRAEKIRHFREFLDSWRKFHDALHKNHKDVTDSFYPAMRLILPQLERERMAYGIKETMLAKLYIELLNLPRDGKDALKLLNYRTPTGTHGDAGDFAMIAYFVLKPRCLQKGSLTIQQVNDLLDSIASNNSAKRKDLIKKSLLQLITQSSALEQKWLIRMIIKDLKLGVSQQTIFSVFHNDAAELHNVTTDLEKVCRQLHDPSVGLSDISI
Kind of test: fluorescence polarisation; 25 nM FAM-labeled peptide constant, LigIV DBD 5 nM–200 μM; 15 mM Tris pH 7.5, 65 mM NaCl, 0.7 mM βME; 20 min. The settings on record: both partners purified. On the technique in general: In fluorescence polarisation assays a small probe gives low polarisation when free and higher when bound to something large.

B1: FAM-labeled Artemis 486-496 peptide (peptide)
peptide: {FAM}-VPQWEVFFKRN
notes: Artemis, residues 486-496; also called Artemis peptide; source: synthetic peptide (GenScript)
A word on the Kd: it is the equilibrium constant for the complex coming apart. B1 displayed an equilibrium dissociation constant (Kd) of 1.5 to 4 µM.

B2: FAM-labeled Ku70 1-11 peptide (peptide)
peptide: {FAM}-MSGWESYYKTE
notes: Ku70, residues 1-11; The results call the modelled stretch 'Ku70 CTR', but the peptide is residues 1-11; also called Ku70 peptide; source: synthetic peptide (GenScript)
B2: the dissociation constant Kd lay in the range of 29 to 30 µM.
